Target: cysteine-free TauRD (Tau repeat domain, residues 244-371, C291A/P301L/C322A/V337M) (UniProt P10636-8 244-371, C291A | P301L | C322A | V337M)
Experiment: cell-based or functional assay

cysteine-free TauRD (Tau repeat domain, residues 244-371, C291A/P301L/C322A/V337M), sequence (P10636 561-688 C608A/P618L/C639A/V654M): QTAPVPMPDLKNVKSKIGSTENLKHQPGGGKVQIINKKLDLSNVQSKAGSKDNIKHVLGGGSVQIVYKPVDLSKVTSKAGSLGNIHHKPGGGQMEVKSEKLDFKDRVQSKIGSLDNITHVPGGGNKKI

B1: Clusterin (Clu; apolipoprotein J), recombinant with Strep tag (CluStrep) (natural protein, human)
chain 1: DQTVSDNELQEMSNQGSKYVNKEIQNAVNGVKQIKTLIEKTNEERKTLLSNLEEAKKKKEDALNETRESETKLKELPGVCNETMMALWEECKPCLKQTCMKFYARVCRSGSGLVGRQLEEFLNQSSPFYFWMNGDRIDSLLENDRQQTHMLDVMQDHFSRASSIIDELFQDRFFTREPQDTYHYLPFSLPHRRPHFFFPKSRIVR
chain 2: SLMPFSPYEPLNFHAMFQPFLEMIHEAQQAMDIHFHSPAFQHPPTEFIREGDDDRTVCREIRHNSTGCLRMKDQCDKCREILSVDCSTNNPSQAKLRRELDESLQVAERLTRKYNELLKSYQWKMLNTSSLLEQLNEQFNWVSRLANLTQGEDQYYLRVTTVASHTSDSDVPSGVTEVVVKLFDSDPITVTVPVEVSRKNPKFMETVAEKALQEYRKKHREE
modifications: N-glycosylated | N-glycosylated
B1 was tested. Which “seeding capacity in TauRD-YT cells of the soluble fraction of a TauRD aggregation reaction made without Clu, after adding Clu” value did it give?
The value was about 5 fold.

What about the “specific seeding activity (FRET-positive TauRD-YT cells per ng TauRD) of the Clu-containing supernatant against the supernatant without Clu” value of the same binder?
The value was about 40 fold.

Source: PMC8357826, “The extracellular chaperone Clusterin enhances Tau aggregate seeding in a cellular model” (Nature Communications, 2021)
